The supplement of paper PMC5998384

How the values were obtained:
HeLa Kyoto [1] = test: thermal stability score vs G1/S (z-score of summed log2 fold changes over temperatures); higher = more thermally stable than in G1/S
HeLa Kyoto [2] = test: solubility change mitosis vs G1/S (difference of NP-40 vs SDS log2 ratios) (log2 ratio difference); higher = more soluble in mitosis
HeLa Kyoto [3] = test: solubility in G1/S (NP-40 vs SDS abundance) (log2 ratio); higher = more soluble; settings: cell cycle stage: G1/S
HeLa Kyoto [4] = test: melting temperature (median over replicates), in situ; higher = more thermally stable
[5] = cell cycle stage: early G1 (4.5 h after nocodazole release)
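For melting temperature (median over replicates), in situ in this document: HeLa Kyoto cells synchronized by double thymidine or nocodazole block, proteins quantified by TMT10plex mass spectrometry, three independent biological replicates.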
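For solubility change mitosis vs G1/S (difference of NP-40 vs SDS log2 ratios) in this document: synchronized HeLa Kyoto cells (double thymidine block for G1/S, nocodazole release for mitosis), protein amounts in NP-40 versus SDS lysates quantified by mass spectrometry, three biological replicates.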
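For solubility in G1/S (NP-40 vs SDS abundance) in this document: HeLa Kyoto cells arrested at G1/S by double thymidine block, proteins quantified by TMT10plex mass spectrometry in mild NP-40 versus SDS extracts, three biological replicates.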
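For thermal stability score vs G1/S (z-score of summed log2 fold changes over temperatures) in this document: synchronized HeLa Kyoto cells, proteins quantified by TMT10plex mass spectrometry, three biological replicates, mitosis taken 0.5 h after nocodazole release, G1/S directly after double thymidine block.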

Row | Sequence | thermal stability score (HeLa Kyoto [1]; [5]) | thermal stability score (HeLa Kyoto [1]; cell cycle stage: mitosis) | solubility change mitosis (log2) (HeLa Kyoto [2]) | solubility in G1/S (log2) (HeLa Kyoto [3]) | melting temperature (HeLa Kyoto [4]; cell cycle stage: G1/S) [°C] | melting temperature (HeLa Kyoto [4]; cell cycle stage: mitosis) [°C]
1 | MAATKRKRRGGFAVQAKKPKRNEIDAEPPAKRHATAEEVEEEERDRIPGPVCKGKWKNKERILIFSSRGINFRTRHLMQDLRMLMPHSKADTKMDRKDKLFVINEVCEMKNCNKCIYFEAKKKQDLYMWLSNSPHGPSAKFLVQNIHTLAELKMTGNCLKGSRPLLSFDPAFDELPHYALLKELLIQIFSTPRYHPKSQPFVDHVFTFTILDNRIWFRNFQIIEEDAALVEIGPRFVLNLIKIFQGSFGGPTLYENPHYQSPNMHRRVIRSITAAKYREKQQVKDVQKLRKKEPKTLLPHDPTADVFVTPAEEKPIEIQWVKPEPKVDLKARKKRIYKRQRKMKQRMDSGKTK [BRIX1] | 0.649 | -2.33 | 1.19 | -2.07 | 53.8 | 52.9
2 | MAATLKSLKLVRYRAFCSPSAFGAVRSVSYWNVSSTQHGGQDPPEHISLCHSAKKVKNICSTFSSRRILTTSSAHPGLEFSKTSSSKASTLQLGSPRATGVDEEDVEVFDSFENMRVFLQLRPEYRVHSYNASETSQLLSVSEGELILHKVRVNQNNLQAQVIVDYLCKLSSLPAEQHPVLLGSTSFALLCQLSVKKIQLFDTQDLINVLKAFVILGIPHSHSMLDVYETKCCHQVWEMNMDQLLLVADLWRYLGRKVPRFLNIFSSYLNLHWKDLSLSQLVHLIYVIGENRQVSQDLMQKLESLILKYIDLINLEEVGTICLGFFKSSTNLSEFVMRKIGDLACANIQHLSSRSLVNIVKMFRFTHVDHINFMKQIGEIAPQRIPSLGVQGVMHLTLYCSALRFLNEGVMNAVAASLPPRVAHCRSKDVAKILWSFGTLNYKPPNAEEFYSSLISEIHRKMPEFNQYPEHLPTCLLGLAFLEYFPVELIDFALSPGFVRLAQERTKFDLLKELYTLDGTVGIECPDYRGNRLSTHLQQEGSELLWYLAEKDMNSKPEFLETVFLLETMLGGPQYVKHHMILPHTRSSDLEVQLDVNLKPLPFNREATPAENVAKLRLEHVGVSLTDDLMNKLLKGKARGHFQGKTESEPGQQPMELENKAAVPLGGFLCNVADKSGAMEMAGLCPAACMQTPRMKLAVQFTNRNQYCYGSRDLLGLHNMKRRQLARLGYRVVELSYWEWLPLLKRTRLEKLAFLHEKVFTSAL [FASTKD5] | 0.139 | 1.05 | -0.0689 | -0.184 | 49.5 | 49.8
3 | MAAVDLEKLRASGAGKAIGVLTSGGDAQGMNAAVRAVTRMGIYVGAKVFLIYEGYEGLVEGGENIKQANWLSVSNIIQLGGTIIGSARCKAFTTREGRRAAAYNLVQHGITNLCVIGGDGSLTGANIFRSEWGSLLEELVAEGKISETTARTYSHLNIAGLVGSIDNDFCGTDMTIGTDSALHRIMEVIDAITTTAQSHQRTFVLEVMGRHCGYLALVSALASGADWLFIPEAPPEDGWENFMCERLGETRSRGSRLNIIIIAEGAIDRNGKPISSSYVKDLVVQRLGFDTRVTVLGHVQRGGTPSAFDRILSSKMGMEAVMALLEATPDTPACVVTLSGNQSVRLPLMECVQMTKEVQKAMDDKRFDEATQLRGGSFENNWNIYKLLAHQKPPKEKSNFSLAILNVGAPAAGMNAAVRSAVRTGISHGHTVYVVHDGFEGLAKGQVQEVGWHDVAGWLGRGGSMLGTKRTLPKGQLESIVENIRIYGIHALLVVGGFEAYEGVLQLVEARGRYEELCIVMCVIPATISNNVPGTDFSLGSDTAVNAAMESCDRIKQSASGTKRRVFIVETMGGYCGYLATVTGIAVGADAAYVFEDPFNIHDLKVNVEHMTEKMKTDIQRGLVLRNEKCHDYYTTEFLYNLYSSEGKGVFDCRTNVLGHLQQGGAPTPFDRNYGTKLGVKAMLWLSEKLREVYRKGRVFANAPDSACVIGLKKKAVAFSPVTELKKDTDFEHRMPREQWWLSLRLMLKMLAQYRISMAAYVSGELEHVTRRTLSMDKGF [PFKL] | -1.97 | -2.04 | -0.179 | -0.0607 | 58.6 | 58.1
4 | MAAVLKPVLLGLRDAPVHGSPTGPGAWTASKLGGIPDALPTVAAPRPVCQRCGQPLALVVQVYCPLEGSPFHRLLHVFACACPGCSTGGARSWKVFRSQCLQVPEREAQDAQKQGNSLAAEDWCEGADDWGSDTEEGPSPQFTLDFGNDASSAKDVDWTARLQDLRLQDAVLGAAHPVPPGLPLFLPYYICVADEDDYRDFVNLDHAHSLLRDYQQREGIAMDQLLSQSLPNDGDEKYEKTIIKSGDQTFYKFMKRIAACQEQILRYSWSGEPLFLTCPTSEVTELPACSQCGGQRIFEFQLMPALVSMLKSANLGLSVEFGTILVYTCEKSCWPPNHQTPMEEFCIIQEDPDELLFK [PDCD2L] | 0.0844 | 0.849 | 0.0741 | 0.287 | 48.9 | 49.8
5 | MAAVQVVGSWPSVQPREAPREAIPERGNGFRLLSARLCALRPDDSSSARTEIHLLFDQLISENYSEGSGVAPEDVSALLVQACRLVPLNQNHLVSKVSQLIHHLLNRLQVIVDEQHLDFLLAYTISAIHQCSSWTHREILQALAALVYCNGSKCQKYLPELLGNTGLLMKLSDLAQSDPEVRRAAVHCMANLCLSVPGQPYLEEPYQNVCFQAFLTILQSPKSSDMDDITFCMLLQNALKGIQSLLNGGRMKLTQTDELGALLAVLKKFMFHGLPGLNIEMPTVLYPTPLPQYDGRTPIKPQQSESSASRPTLNKKKKSKVKPKKIQQGEEEEKESSGEIEAAPVTGTGRVNLHEGNTWCPSSLGVQSLPLDGSGAAEKDGVSSSFSSSSWKRVSSSESDFSDAEGGMQSKMRSYQAKVRQGALVCFLSTIKSIEKKVLYGYWSAFIPDTPELGSPQSVSLMTLTLKDPSPKTRACALQVLSAILEGSKQFLSVAEDTSDHRRAFTPFSVMIACSIRELHRCLLLALVAESSSQTVTQIIKCLANLVSNAPYDRLKLSLLTKVWNQIKPYIRHKDVNVRVSSLTLLGAIVSTHAPLPEVQLLLQQPCSSGLGNSNSATPHLSPPDWWKKAPAGPSLEETSVSSPKGSSEPCWLIRLCISIVVLPKEDSCSGSDAGSAAGSTYEPSPMRLEALQVLTLLARGYFSMTQAYLMELGEVICKCMGEADPSIQLHGAKLLEELGTGLIQQYKPDSTAAPDQRAPVFLVVMFWTMMLNGPLPRALQNSEHPTLQASACDALSSILPEAFSNLPNDRQMLCITVLLGLNDSKNRLVKAATSRALGVYVLFPCLRQDVIFVADAANAILMSLEDKSLNVRAKAAWSLGNLTDTLIVNMETPDPSFQEEFSGLLLLKMLRSAIEASKDKDKVKSNAVRALGNLLHFLQPSHIEKPTFAEIIEESIQALISTVLTEAAMKVRWNACYAMGNVFKNPALPLGTAPWTSQAYNALTSVVTSCKNFKVRIRSAAALSVPGKREQYGSVDQYARIWNALVTALQKSEDTIDFLEFKYCVSLRTQICQALIHLLSLASASDLPCMKETLELSGNMVQSYILQFLKSGAEGDDTGAPHSPQERDQMVRMALKHMGSIQAPTGDTARRAIMGFLEEILAVCFDSSGSQGALPGLTNQ [HEATR6] | -0.697 | 0.141 | -0.216 | 0.0502 | 50.5 | 50.1
6 | MAAVRGLRVSVKAEAPAGPALGLPSPEAESGVDRGEPEPMEVEEGELEIVPVRRSLKELIPDTSRRYENKAGSFITGIDVTSKEAIEKKEQRAKRFHFRSEVNLAQRNVALDRDMMKKAIPKVRLETIYICGVDEMSTQDVFSYFKEYPPAHIEWLDDTSCNVVWLDEMTATRALINMSSLPAQDKIRSRDASEDKSAEKRKKDKQEDSSDDDEAEEGEVEDENSSDVELDTLSQVEEESLLRNDLRPANKLAKGNRLFMRFATKDDKKELGAARRSQYYMKYGNPNYGGMKGILSNSWKRRYHSRRIQRDVIKKRALIGDDVGLTSYKHRHSGLVNVPEEPIEEEEEEEEEEEEEEEEDQDMDADDRVVVEYHEELPALKQPRERSASRRSSASSSDSDEMDYDLELKMISTPSPKKSMKMTMYADEVESQLKNIRNSMRADSVSSSNIKNRIGNKLPPEKFADVRHLLDEKRQHSRPRPPVSSTKSDIRQRLGKRPHSPEKAFSSNPVVRREPSSDVHSRLGVPRQDSKGLYADTREKKSGNLWTRLGSAPKTKEKNTKKVDHRAPGAEEDDSELQRAWGALIKEKEQSRQKKSRLDNLPSLQIEVSRESSSGSEAES [NCBP3] | 1.38 | 2.56 | 0.394 | -0.537 | 45.6 | 49.4
7 | MAAVSVYAPPVGGFSFDNCRRNAVLEADFAKRGYKLPKVRKTGTTIAGVVYKDGIVLGADTRATEGMVVADKNCSKIHFISPNIYCCGAGTAADTDMTTQLISSNLELHSLSTGRLPRVVTANRMLKQMLFRYQGYIGAALVLGGVDVTGPHLYSIYPHGSTDKLPYVTMGSGSLAAMAVFEDKFRPDMEEEEAKNLVSEAIAAGIFNDLGSGSNIDLCVISKNKLDFLRPYTVPNKKGTRLGRYRCEKGTTAVLTEKITPLEIEVLEETVQTMDTS [PSMB7] | -1.21 | -2.39 | -0.192 | 0.376 | 60.7 | 64.5
8 | MAAVVALSLRRRLPATTLGGACLQASRGAQTAAATAPRIKKFAIYRWDPDKAGDKPHMQTYEVDLNKCGPMVLDALIKIKNEVDSTLTFRRSCREGICGSCAMNINGGNTLACTRRIDTNLNKVSKIYPLPHMYVIKDLVPDLSNFYAQYKSIEPYLKKKDESQEGKQQYLQSIEEREKLDGLYECILCACCSTSCPSYWWNGDKYLGPAVLMQAYRWMIDSRDDFTEERLAKLQDPFSLYRCHTIMNCTRTCPKGLNPGKAIAEIKKMMATYKEKKASV [SDHB] | -1.86 | -2.8 | -0.00338 | 0.659 | 54.7 | 56.3
9 | MAAVVLAATRLLRGSGSWGCSRLRFGPPAYRRFSSGGAYPNIPLSSPLPGVPKPVFATVDGQEKFETKVTTLDNGLRVASQNKFGQFCTVGILINSGSRYEAKYLSGIAHFLEKLAFSSTARFDSKDEILLTLEKHGGICDCQTSRDTTMYAVSADSKGLDTVVALLADVVLQPRLTDEEVEMTRMAVQFELEDLNLRPDPEPLLTEMIHEAAYRENTVGLHRFCPTENVAKINREVLHSYLRNYYTPDRMVLAGVGVEHEHLVDCARKYLLGVQPAWGSAEAVDIDRSVAQYTGGIAKLERDMSNVSLGPTPIPELTHIMVGLESCSFLEEDFIPFAVLNMMMGGGGSFSAGGPGKGMFSRLYLNVLNRHHWMYNATSYHHSYEDTGLLCIHASADPRQVREMVEIITKEFILMGGTVDTVELERAKTQLTSMLMMNLESRPVIFEDVGRQVLATRSRKLPHELCTLIRNVKPEDVKRVASKMLRGKPAVAALGDLTDLPTYEHIQTALSSKDGRLPRTYRLFR [PMPCA] | 0.057 | -1.17 | -0.174 | -0.0271 | 52.2 | 51.8
10 | MACLLETPIRMSVLSEVTASSRHYVDRLFDPDPQKVLQGVIDMKNAVIGNNKQKANLIVLGAVPRLLYLLQQETSSTELKTECAVVLGSLAMGTENNVKSLLDCHIIPALLQGLLSPDLKFIEACLRCLRTIFTSPVTPEELLYTDATVIPHLMALLSRSRYTQEYICQIFSHCCKGPDHQTILFNHGAVQNIAHLLTSLSYKVRMQALKCFSVLAFENPQVSMTLVNVLVDGELLPQIFVKMLQRDKPIEMQLTSAKCLTYMCRAGAIRTDDNCIVLKTLPCLVRMCSKERLLEERVEGAETLAYLIEPDVELQRIASITDHLIAMLADYFKYPSSVSAITDIKRLDHDLKHAHELRQAAFKLYASLGANDEDIRKKIIETENMMDRIVTGLSESSVKVRLAAVRCLHSLSRSVQQLRTSFQDHAVWKPLMKVLQNAPDEILVVASSMLCNLLLEFSPSKEPILESGAVELLCGLTQSENPALRVNGIWALMNMAFQAEQKIKADILRSLSTEQLFRLLSDSDLNVLMKTLGLLRNLLSTRPHIDKIMSTHGKQIMQAVTLILEGEHNIEVKEQTLCILANIADGTTAKDLIMTNDDILQKIKYYMGHSHVKLQLAAMFCISNLIWNEEEGSQERQDKLRDMGIVDILHKLSQSPDSNLCDKAKMALQQYLA [ARMC8] | -0.497 | 0.122 | -0.195 | -0.0698 | 51.1 | 51
